Experimental data: US20240132626A1 (Eli Lilly, published 2024)

What was measured:
Experiment in all cases: SPR, captured via anti-human kappa, soluble ECD injected
[1] = target: T1, Soluble human HER-2 extracellular domain (ECD) protein (human, UniProt P04626 23-652)
T1 construct: extracellular domain; His-tagged

[2] = target: T2, Soluble human EGFR ECD protein (human, UniProt P00533 25-645)
T2 construct: extracellular domain; His-tagged

[3] = target: T3, Soluble human cMet extracellular domain (ECD) protein (human, UniProt P08581 25-932)
T3 construct: extracellular domain; His-tagged
T3 sequence (P08581 25-932): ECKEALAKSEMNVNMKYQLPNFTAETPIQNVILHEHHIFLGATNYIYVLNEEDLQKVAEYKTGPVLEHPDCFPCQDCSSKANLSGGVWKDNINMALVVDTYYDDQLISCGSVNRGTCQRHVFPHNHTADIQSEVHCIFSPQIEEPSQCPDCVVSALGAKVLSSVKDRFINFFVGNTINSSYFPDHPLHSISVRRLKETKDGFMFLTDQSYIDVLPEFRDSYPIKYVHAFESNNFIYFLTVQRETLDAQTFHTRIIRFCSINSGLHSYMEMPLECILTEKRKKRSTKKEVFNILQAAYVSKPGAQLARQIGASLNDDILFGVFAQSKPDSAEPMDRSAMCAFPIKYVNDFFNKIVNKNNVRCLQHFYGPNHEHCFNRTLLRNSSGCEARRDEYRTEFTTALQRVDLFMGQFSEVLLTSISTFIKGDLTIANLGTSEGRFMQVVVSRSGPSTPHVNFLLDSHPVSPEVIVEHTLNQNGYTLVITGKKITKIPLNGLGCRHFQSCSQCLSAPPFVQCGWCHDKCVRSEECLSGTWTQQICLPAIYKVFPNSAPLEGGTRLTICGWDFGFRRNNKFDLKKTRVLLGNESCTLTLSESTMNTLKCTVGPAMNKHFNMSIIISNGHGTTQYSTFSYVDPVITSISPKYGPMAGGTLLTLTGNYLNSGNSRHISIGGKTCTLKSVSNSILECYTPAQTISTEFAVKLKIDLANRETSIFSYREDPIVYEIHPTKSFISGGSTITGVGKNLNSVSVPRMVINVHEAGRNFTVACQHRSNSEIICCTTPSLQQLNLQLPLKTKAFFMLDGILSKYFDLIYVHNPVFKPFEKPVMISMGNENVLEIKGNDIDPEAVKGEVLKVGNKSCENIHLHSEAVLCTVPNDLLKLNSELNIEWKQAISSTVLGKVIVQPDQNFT

B1: HER-2 X EGFR X cMet TsAb_C_L (other)
heavy 1: EVQLVESGGGLVQPGGSLRLSCAASGFTFTDYTMDWVRKAPGKGLEWVADVNPNSGGSIYNQEFKGRFTLSVDRSKNTLYLQMNSLRAEDTAVYYCARNLGPSFYFDYWGQGTLVTVSSASTKGPSVFPLAPSSKSTSGGTAALGCLVKDYFPEPVTVSWNSGALTSGVATGPAVLQSSGLYSLSSVVTVPSSSLGTQTYICNVNHKPSNTKVDKKVEPKSCDKTHTCPPCPAPEAAGGPSVFLFPPKPKDTLMISRTPEVTCVVVDVSHEDPEVKFNWYVDGVEVHNAKTKPREEQYQSTYRVVSVLTVLHQDWLNGKEYKCKVSNKALPAPIEKTISKAKGQPREPQVSTLPPSREEMTKNQVSLMCLVYGFYPSDIAVEWESNGQPENNYKTTPPVLDSDGSFFLYSVLTVDKSRWQQGNVFSCSVMHEALHNHYTQKSLSLSPG
light 1: RIQMTQSPSSLSASVGDRVTITCKASQDVSIGVAWYQDKPGKAPKLLIYSASYRYTGVPSRFSGSGSGTDFTLTISSLQPEDFATYYCQQYYIYPYTFGQGTKVEIKGQPKAAPSVTLFPPSSEELQANKATLVCYISDFYPGAVTVAWKADSSPVKAGVETTTPSKQSNNKYAAWSYLSLTPEQWKSHRSYSCQVTHEGSTVEKTVAPTEC
chain: EVQLVESGGGLVQPGGSLRLSCAASGYTFTSYWLHWVRQAPGKGLEWVGMIDPSNSDTRFNPNFKDRFTISADTSKNTAYLQMNSLRAEDTAVYYCATYRSYVTPLDYWGRGTLVTVSSASTKGPSVFPLAPSSKSTSGGTAALGCLVADYFPEPVTVSWNSGALTSGVHTFPAVLQSSGLYSLSSVVTVPSSSLGTQTYICNVNHKPSNTKVDERVEPKSC
heavy 2: QVQLVQSGAEVKKPGASVKVSCKASGYTFTSHWMHWVRYAPGQGLEWIGEFNPSNGRTNYNEKFKSKATMTVDTSTNTAYMELSSLRSEDTAVYYCASRDYDYDGRYFDYWGQGTLVTVSSASTKGPSVFPLAPCSKSTSGGTAALGCLVKDYFPEPVTVSWNSGALTSGVHTFPAVLQSSGLYSLSSVVTVPSSSLGTQTYICNVNHKPSNTKVDKKVEPDSGDKTHTCPPCPAPEAAGGPSVFLFPPKPKDTLMISRTPEVTCVVVDVSHEDPEVKFNWYVDGVEVHNAKTKPREEQYQSTYRVVSVLTVLHQDWLNGKEYKCKVSNKALPAPIEKTISKAKGQPREPQVYTLPPSRGDMTKNQVQLTCLVKGFYPSDIAVEWESNGQPENNYKTTPPVLDSDGSFFLASKLTVDKSRWQQGNVFSCSVMHEALHNHYTQKSLSLSPGKGGGGSGGGGSGGGGSGGGGSDIQMTQSPSSLSASVGDRVTITCKSSQSLLYTSSQKNYLAWYQQKPGDAPKLLIYWASTRESGVPSRFSGSGSGTDFTLTISSLQPEDFATYYCQQYYAYPWTFGQGTKVEIKRTVAAPSVFIFPPSDKQLKSGTARVVCLLNNFYPREAKVQWKVDNALQSGNSQESVTEQDSKDSTYSLISTLTLSKADYEKHKVYACEVTHQGLSSPVTKSFNRGEC
light 2: DIQMTQSPSSLSASVGDRVTITCSASSSVTYMYWYQRKPGKAPKLLIYDTSNLASGVPSRFSGSGSGTDYTFTISSLQPEDIATYYCQQWSSHIFTFGQGTKVEIKRTVAAPSVFIFPPSKEQLKSGTASVVCLLNNFYPREAKVQWKVDNALQSGNSQESVTEQDSKDSTYSLSSTLTLSKADYEKHKVYACEVTHQGLSSPVTKSFNRGEC
notes: Trispecific IgG-Fab antibody; the anti-cMet Fab is tethered through its light chain only at the C-terminus of HC2
Kd [1]: 0.8 nM | koff [1]: 0.00039 s⁻¹ | kon [1]: 520000 M⁻¹ s⁻¹ | Kd [2]: 4.5 nM | koff [2]: 0.0086 s⁻¹ | kon [2]: 1.9e+06 M⁻¹ s⁻¹ | Kd [3]: 0.69 nM | koff [3]: 0.00025 s⁻¹ | kon [3]: 360000 M⁻¹ s⁻¹

B2: HER-2 X EGFR X cMet TsAb_N_H (other)
heavy 1: EVQLVESGGGLVQPGGSLRLSCAASGYTFTSYWLHWVRQAPGKGLEWVGMIDPSNSDTRFNPNFKDRFTISADTSKNTAYLQMNSLRAEDTAVYYCATYRSYVTPLDYWGRGTLVTVSSASTKGPSVFPLAPSSKSTSGGTAALGCLVADYFPEPVTVSWNSGALTSGVHTFPAVLQSSGLYSLSSVVTVPSSSLGTQTYICNVNHKPSNTKVDERVEPKSCGGGGSGGGGSGGGGSGGGGSGGGGSQVQLVQSGAEVKKPGASVKVSCKASGYTFTSHWMHWVRYAPGQGLEWIGEFNPSNGRTNYNEKFKSKATMTVDTSTNTAYMELSSLRSEDTAVYYCASRDYDYDGRYFDYWGQGTLVTVSSASTKGPSVFPLAPCSKSTSGGTAALGCLVKDYFPEPVTVSWNSGALTSGVHTFPAVLQSSGLYSLSSVVTVPSSSLGTQTYICNVNHKPSNTKVDKKVEPDSGDKTHTCPPCPAPEAAGGPSVFLFPPKPKDTLMISRTPEVTCVVVDVSHEDPEVKFNWYVDGVEVHNAKTKPREEQYQSTYRVVSVLTVLHQDWLNGKEYKCKVSNKALPAPIEKTISKAKGQPREPQVYTLPPSRGDMTKNQVQLTCLVKGFYPSDIAVEWESNGQPENNYKTTPPVLDSDGSFFLASKLTVDKSRWQQGNVFSCSVMHEALHNHYTQKSLSLSPG
light 1: B1 light 2
heavy 2: B1 heavy 1
light 2: B1 light 1
light 3: DIQMTQSPSSLSASVGDRVTITCKSSQSLLYTSSQKNYLAWYQQKPGDAPKLLIYWASTRESGVPSRFSGSGSGTDFTLTISSLQPEDFATYYCQQYYAYPWTFGQGTKVEIKRTVAAPSVFIFPPSDKQLKSGTARVVCLLNNFYPREAKVQWKVDNALQSGNSQESVTEQDSKDSTYSLISTLTLSKADYEKHKVYACEVTHQGLSSPVTKSFNRGEC
notes: Trispecific IgG-Fab antibody; the anti-cMet Fab is fused N-terminally through its heavy chain fragment
Kd [1]: 1.1 nM | koff [1]: 0.00026 s⁻¹ | kon [1]: 230000 M⁻¹ s⁻¹ | Kd [2]: 13 nM | koff [2]: 0.0085 s⁻¹ | kon [2]: 680000 M⁻¹ s⁻¹ | Kd [3]: 0.31 nM | koff [3]: 0.00016 s⁻¹ | kon [3]: 520000 M⁻¹ s⁻¹

B3: HER-2 X EGFR X cMet TsAb_N_L (other)
heavy 1: DIQMTQSPSSLSASVGDRVTITCKSSQSLLYTSSQKNYLAWYQQKPGDAPKLLIYWASTRESGVPSRFSGSGSGTDFTLTISSLQPEDFATYYCQQYYAYPWTFGQGTKVEIKRTVAAPSVFIFPPSDKQLKSGTARVVCLLNNFYPREAKVQWKVDNALQSGNSQESVTEQDSKDSTYSLISTLTLSKADYEKHKVYACEVTHQGLSSPVTKSFNRGECGGGGSGGGGSGGGGSGGGGSGGGGSQVQLVQSGAEVKKPGASVKVSCKASGYTFTSHWMHWVRYAPGQGLEWIGEFNPSNGRTNYNEKFKSKATMTVDTSTNTAYMELSSLRSEDTAVYYCASRDYDYDGRYFDYWGQGTLVTVSSASTKGPSVFPLAPCSKSTSGGTAALGCLVKDYFPEPVTVSWNSGALTSGVHTFPAVLQSSGLYSLSSVVTVPSSSLGTQTYICNVNHKPSNTKVDKKVEPDSGDKTHTCPPCPAPEAAGGPSVFLFPPKPKDTLMISRTPEVTCVVVDVSHEDPEVKFNWYVDGVEVHNAKTKPREEQYQSTYRVVSVLTVLHQDWLNGKEYKCKVSNKALPAPIEKTISKAKGQPREPQVYTLPPSRGDMTKNQVQLTCLVKGFYPSDIAVEWESNGQPENNYKTTPPVLDSDGSFFLASKLTVDKSRWQQGNVFSCSVMHEALHNHYTQKSLSLSPG
light 1: B1 light 2
heavy 2: B1 heavy 1
light 2: B1 light 1
chain: B1 chain
notes: Trispecific IgG-Fab antibody; the anti-cMet Fab is fused N-terminally through its light chain
Kd [1]: 0.9 nM | koff [1]: 0.00024 s⁻¹ | kon [1]: 260000 M⁻¹ s⁻¹ | Kd [2]: 13 nM | koff [2]: 0.009 s⁻¹ | kon [2]: 720000 M⁻¹ s⁻¹ | Kd [3]: 0.36 nM | koff [3]: 0.00016 s⁻¹ | kon [3]: 440000 M⁻¹ s⁻¹

B4: HER-2 X EGFR X cMet TsAb_HHH (other)
heavy: EVQLVESGGGLVQPGGSLRLSCAASGFTFTDYTMDWVRKAPGKGLEWVADVNPNSGGSIYNQEFKGRFTLSVDRSKNTLYLQMNSLRAEDTAVYYCARNLGPSFYFDYWGQGTLVTVSSASTKGPSVFPLAPSSKSTSGGTAALGCLVKDYFPEPVTVSWNSGALTSGVATGPAVLQSSGLYSLSSVVTVPSSSLGTQTYICNVNHKPSNTKVDKKVEPKSCGGGGSGGGGSGGGGSQVQLVQSGAEVKKPGASVKVSCKASGYTFTSHWMHWVRYAPGQGLEWIGEFNPSNGRTNYNEKFKSKATMTVDTSTNTAYMELSSLRSEDTAVYYCASRDYDYDGRYFDYWGQGTLVTVSSASTKGPSVFPLAPCSKSTSGGTAALGCLVKDYFPEPVTVSWNSGALTSGVHTFPAVLQSSGLYSLSSVVTVPSSSLGTQTYICNVNHKPSNTKVDKKVEPDSGGGGGSGGGGSGGGGSEVQLVESGGGLVQPGGSLRLSCAASGYTFTSYWLHWVRQAPGKGLEWVGMIDPSNSDTRFNPNFKDRFTISADTSKNTAYLQMNSLRAEDTAVYYCATYRSYVTPLDYWGRGTLVTVSSASTKGPSVFPLAPSSKSTSGGTAALGCLVADYFPEPVTVSWNSGALTSGVHTFPAVLQSSGLYSLSSVVTVPSSSLGTQTYICNVNHKPSNTKVDERVEPKSCHHHHHHHH
light 1: B1 light 1
light 2: B1 light 2
light 3: B2 light 3
notes: Tandem Fab trispecific antibody without Fc
Kd [1]: 0.8 nM | koff [1]: 0.00022 s⁻¹ | kon [1]: 260000 M⁻¹ s⁻¹ | Kd [2]: 15 nM | koff [2]: 0.0055 s⁻¹ | kon [2]: 360000 M⁻¹ s⁻¹ | Kd [3]: 0.77 nM | koff [3]: 0.00013 s⁻¹ | kon [3]: 170000 M⁻¹ s⁻¹
